# Results: patent publication US20030027251
# Biological target: bacteriophage λ cII protein (UniProt P03042)
Substance,"fold induction of β-galactosidase (induced/uninduced), strain SYKD006; reference SYKD004 without plasmid ftsH: 21 [fold]","fold induction of β-galactosidase, strain SYKD006","β-galactosidase level against arabinose used to induce FtsH(E415A), strain SYKD008","fold induction of β-galactosidase (induced/uninduced), strain SYKD005; reference SYKD004 without plasmid ftsH: 21 [fold]","fold induction of β-galactosidase, strain SYKD005","β-galactosidase level against arabinose used to induce FtsH, strain SYKD007"
"FtsH(E415A), protease-deficient mutant of FtsH",26,This reduction in the expression of lacZ was not observed in the presence of FtsH (E415A),inducing the strain SYKD008 at different concentrations of arabinose did not have any effect on the levels of β-galactosidase being produced,,,
E. coli FtsH,,,,10,the fold induction of β-galactosidase was reduced to half when cII was induced with IPTG in the presence of FtsH,in SYKD007 the level of β-galactosidase appeared to be directly correlated to the amount of arabinose used for induction
